The source of these data is patent US20050186593A1 (SALK INSTITUTE FOR BIOLOGICAL STUDIES, published 2005).

In assay [1] the target is Xenopus activin receptor xActRIIB, expressed in Xenopus embryos from injected synthetic RNA (Xenopus) (UniProt P27041). As to the kind of experiment: cell-based or functional assay.
Assay [2] concerns the target T1, Mouse activin receptor, full length (encoded by clone pmActR2), expressed on transfected COS cells (mouse, UniProt P27038 20-513).
T1 construct: also called mActRII; ActRII
As to the kind of experiment: competition with 125I activin A on COS cells transfected with pmActR2. Here is the method: (§1) 10⁵ COS cells transfected with either pmActR1 or pmActR2, or 10⁶ untransfected COS cells, were plated in 6 well dishes and allowed to grow overnight. The cells were washed 2× with HDB, 0.1% BSA, and incubated at 22° for 90 minutes in 0.5 ml HDB, 0.1% BSA containing 100,000 cpm (approximately 1 ng, 75 pM) ¹²⁵I activin A (5 μg activin A was iodinated by chloramine T oxidation to a specific activity of 50-90 μCi/μg; iodinated activin A was purified on a 0.7×20 cm G-25 column) and varying amounts of unlabeled competitor hormone. Following binding, the cells were washed 3× with cold HDB, solubilized in 0.5 ml 0.5 N NaOH, removed from the dish and radioactivity was measured in a gamma counter. Data presented in FIG. 5 are expressed as % specific binding, where 100% specific binding is the difference between binding in the absence of competitor and binding in the presence of a 100 fold molar excess of unlabeled activin A. Binding parameters were determined using the program LIGAND [Munson P. J. and Rodbard, D., Anal. Biochem. 107:220-259 (1980)].
This affinity and specificity of binding match those observed following binding of activin A to a number of other activin-responsive cell types. […]

In assay [3] the target is T1, Mouse activin receptor, full length …. As to the kind of experiment: 125I activin A competition radioreceptor assay on COS cells transfected with pmActR2; LIGAND. Here is the method:
as §1
(§2) To verify that the cloned receptor is activin specific, competition binding experiments were performed on COS cells transiently transfected with either pmActR1 or pmActR2. […] This binding affinity is consistent with that measured on other activin-responsive cell types [see, for example, Campen, C. A. and Vale, W., Biochem. Biophys. Res. Comm. […]

The target of assay [4] is T2, Mouse activin receptor, C-terminally truncated (encoded by clone pmActR1), expressed on transfected COS cells (mouse, UniProt P27038 20-354).
T2 construct: pmActR1 codes for a protein of 342 amino acids, the last 17 of them from the vector; It lacks a complete intracellular kinase domain; the real chain is truncated and its signal peptide (1-19) is removed
T2 sequence (P27038 20-354 limits assumed, form in doubt): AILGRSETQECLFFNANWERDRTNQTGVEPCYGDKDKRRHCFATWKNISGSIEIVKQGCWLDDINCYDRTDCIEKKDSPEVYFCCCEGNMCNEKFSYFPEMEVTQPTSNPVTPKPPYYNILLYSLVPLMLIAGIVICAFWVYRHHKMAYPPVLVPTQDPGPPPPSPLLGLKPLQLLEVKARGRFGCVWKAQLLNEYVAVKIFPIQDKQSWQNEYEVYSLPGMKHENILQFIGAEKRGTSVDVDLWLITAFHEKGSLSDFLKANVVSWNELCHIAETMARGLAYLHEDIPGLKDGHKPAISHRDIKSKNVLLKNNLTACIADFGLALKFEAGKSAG
As to the kind of experiment: 125I activin A competition radioreceptor assay on COS cells transfected with pmActR1; Scatchard/LIGAND. The procedure: as §1, §2

The term Kd denotes the constant that tells how readily two partners part at equilibrium. Read a high Kd as a looser complex.

T1 sequence (P27038 20-513): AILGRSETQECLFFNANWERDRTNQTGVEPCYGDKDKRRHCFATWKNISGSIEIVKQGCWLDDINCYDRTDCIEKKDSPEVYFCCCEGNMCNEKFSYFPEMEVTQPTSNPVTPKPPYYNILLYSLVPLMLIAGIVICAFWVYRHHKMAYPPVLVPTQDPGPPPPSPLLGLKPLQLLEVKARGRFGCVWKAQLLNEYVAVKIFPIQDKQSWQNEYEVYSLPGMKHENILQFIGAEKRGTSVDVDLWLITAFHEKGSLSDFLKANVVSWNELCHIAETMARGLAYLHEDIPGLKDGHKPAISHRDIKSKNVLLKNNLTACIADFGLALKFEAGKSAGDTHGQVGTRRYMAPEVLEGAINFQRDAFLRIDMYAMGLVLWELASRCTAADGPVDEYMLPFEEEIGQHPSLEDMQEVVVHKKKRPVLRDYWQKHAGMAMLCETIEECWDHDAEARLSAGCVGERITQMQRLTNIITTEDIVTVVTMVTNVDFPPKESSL
Sequence of Xenopus activin receptor xActRIIB, expressed in Xenopus embryos from injected synthetic RNA (Xenopus) (P27041 other isoform, or with tags, fused parts or gaps): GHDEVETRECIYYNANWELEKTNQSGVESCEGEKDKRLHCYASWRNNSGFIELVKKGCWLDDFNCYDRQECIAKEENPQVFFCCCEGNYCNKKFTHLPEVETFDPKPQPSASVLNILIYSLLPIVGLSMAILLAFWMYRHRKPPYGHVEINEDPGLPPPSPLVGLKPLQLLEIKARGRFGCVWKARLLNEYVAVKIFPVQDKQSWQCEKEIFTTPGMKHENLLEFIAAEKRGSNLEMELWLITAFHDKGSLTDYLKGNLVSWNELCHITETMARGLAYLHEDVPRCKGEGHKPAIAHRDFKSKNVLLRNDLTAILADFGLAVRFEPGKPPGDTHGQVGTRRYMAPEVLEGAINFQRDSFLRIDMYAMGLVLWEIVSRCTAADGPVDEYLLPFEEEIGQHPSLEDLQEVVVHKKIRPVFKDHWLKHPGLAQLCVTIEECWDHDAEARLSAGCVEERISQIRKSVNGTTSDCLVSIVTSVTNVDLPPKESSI

In assay [1], “Purified porcine activin A (from UniProt P03970 309-424) (ligand)” came in with a muscle-specific actin RNA in animal caps (ribonuclease protection assay); sensitivity to activin against control embryos, embryos injected with 0.4 ng xActRIIB RNA of 10 fold and a muscle-specific actin RNA in animal caps (ribonuclease protection assay); sensitivity to activin against control embryos, embryos injected with 2.0 ng xActRIIB RNA of 100 fold.

B1: Recombinant human (rh) activin B (ligand, UniProt P09529 293-407, looked up)
chain: GLECDGRTNLCCRQQFFIDFRLIGWNDWIIAPTGYYGNYCEGSCPAYLAGVPGSASSFHTAVVNQYRMRGLNPGTVNSCCIPTKLSTMSMLYFDDEYNIVKRDVPNMIVEECGCA
As to B1, the binding result in assay [2] is reported as “binds”.

B2: Recombinant human (rh) inhibin A (ligand)
chain 1: STPLMSWPWSPSALRLLQRPPEEPAAHANCHRVALNISFQELGWERWIVYPPSFIFHYCHGGCGLHIPPNLSLPVPGAPPTPAQPYSLLPGAQPCCAALPGTMRPLHVRTTSDGGYSFKYETVPNLLTQHCACI
chain 2: GLECDGKVNICCKKQFFVSFKDIGWNDWIIAPSGYHANYCEGECPSHIAGTSGSSLSFHSTVINHYRMRGHSPFANLKSCCVPTKLRPMSMLYYDDGQNIIKKDIQNMIVEECGCS
In the case of B2, the “fold lower potency than activin A in competition” value in assay [2] is roughly 10 fold.

B3: Recombinant human (rh) activin A (ligand, UniProt P08476 311-426, looked up)
chain: B2 chain 2
notes: also called 125I activin A; iodinated activin A
Turning to B3, the dissociation constant Kd in assay [3] and in assay [4] was 0.18 nM throughout.
